Results taken from article PMC10539519, “Computational remodeling of an enzyme conformational landscape for altered substrate selectivity” (Nature Communications, 2023).

Key:
[1] = target: T1, E. coli aspartate aminotransferase (AAT) (Escherichia coli, UniProt P00509); assay: room-temperature X-ray crystallography; assay type: binding
T1 construct: gene aspC; full-length, N-terminal His-tag, expressed in E. coli BL21-Gold (DE3), Ni-NTA purified; 90 kDa homodimer, PLP-dependent
T1 sequence (P00509 1-396): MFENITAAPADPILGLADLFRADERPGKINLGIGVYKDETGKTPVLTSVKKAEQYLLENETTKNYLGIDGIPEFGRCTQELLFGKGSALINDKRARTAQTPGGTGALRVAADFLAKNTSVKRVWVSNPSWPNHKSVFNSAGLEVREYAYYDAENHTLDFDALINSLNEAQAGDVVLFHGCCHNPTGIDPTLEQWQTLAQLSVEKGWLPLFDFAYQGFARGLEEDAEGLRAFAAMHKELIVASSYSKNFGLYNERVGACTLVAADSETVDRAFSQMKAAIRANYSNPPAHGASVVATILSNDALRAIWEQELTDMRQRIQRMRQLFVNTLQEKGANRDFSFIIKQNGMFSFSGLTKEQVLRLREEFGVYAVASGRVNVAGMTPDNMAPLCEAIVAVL

purified protein [2] = substrate: O=C(O)CCC(=O)C(=O)O; assay: purified protein; assay type: biochemical, Escherichia coli; conditions: α-ketoglutarate varied 0.002–20 mM, co-substrate 10–20 mM L-aspartate or L-phenylalanine, substrate inhibition, 16 µM PLP, pH 8, 37 °C
purified protein [3] = substrate: N[C@@H](CC(=O)O)C(=O)O; assay: purified protein; conditions: co-substrate α-ketoglutarate (fixed, 0.1563–1.25 mM range), 16 µM PLP, 5 mM NAD+, 100 mM potassium phosphate pH 8, 37 °C
purified protein [4] = substrate: N[C@@H](Cc1ccccc1)C(=O)O; assay: purified protein; assay type: biochemical, Escherichia coli; conditions: co-substrate α-ketoglutarate (fixed, 0.1563–1.25 mM range), 16 µM PLP, 5 mM NAD+, 100 mM potassium phosphate pH 8, 37 °C
[5] = target: the molecule itself; assay: crystal structure; X-ray crystallography, space group P 6_(3), two chains in the asymmetric unit; crystals grown with 20 mM maleate and ammonium sulfate, with or without soaking to remove maleate; data at 278 K (AIFS at 100 K; WT, HEX, VFIT also at 303 K)

For O=C(O)/C=C\C(=O)O [maleate], the “room-temperature X-ray crystallography” value ([1]; co-crystallised with 20 mM maleate, 278 K, contacts Arg280 and Arg374, closed conformation) was “electrostatic interactions between maleate and the side chains of Arg280 and Arg374”.

In the case of Cc1ncc(COP(=O)(O)O)c(C=O)c1O [pyridoxal phosphate], the “room-temperature X-ray crystallography” value ([1]; covalent internal aldimine with K246, 10 µM PLP in crystallisation) is reported as “Restraints for PLP in its internal aldimine form were generated using phenix.elbow”.

B1: E. coli aspartate aminotransferase (AAT) (Escherichia coli K-12) (protein)
chain: MFENITAAPADPILGLADLFRADERPGKINLGIGVYKDETGKTPVLTSVKKAEQYLLENETTKNYLGIDGIPEFGRCTQELLFGKGSALINDKRARTAQTPGGTGALRVAADFLAKNTSVKRVWVSNPSWPNHKSVFNSAGLEVREYAYYDAENHTLDFDALINSLNEAQAGDVVLFHGCCHNPTGIDPTLEQWQTLAQLSVEKGWLPLFDFAYQGFARGLEEDAEGLRAFAAMHKELIVASSYSKNFGLYNERVGACTLVAADSETVDRAFSQMKAAIRANYSNPPAHGASVVATILSNDALRAIWEQELTDMRQRIQRMRQLFVNTLQEKGANRDFSFIIKQNGMFSFSGLTKEQVLRLREEFGVYAVASGRVNVAGMTPDNMAPLCEAIVAVL
notes: full-length, N-terminal His-tag, expressed in E. coli BL21-Gold (DE3), Ni-NTA purified; 90 kDa homodimer, PLP-dependent
B1 was tested, and the Km (purified protein [2]) was 65 ± 5 µM, the kcat (purified protein [2]) was 12.2 ± 0.3 s–1 and the Km (purified protein [3]) was 210 ± 30 µM. It also gave a kcat (purified protein [3]) of 7.8 s⁻¹ and a kcat/Km (purified protein [3]) of 37000 ± 5000 M⁻¹ s⁻¹.

B2: E. coli aspartate aminotransferase (AAT) (Escherichia coli K-12; K37F/N64T/T43I) (protein)
chain: MFENITAAPADPILGLADLFRADERPGKINLGIGVYFDETGKIPVLTSVKKAEQYLLENETTKTYLGIDGIPEFGRCTQELLFGKGSALINDKRARTAQTPGGTGALRVAADFLAKNTSVKRVWVSNPSWPNHKSVFNSAGLEVREYAYYDAENHTLDFDALINSLNEAQAGDVVLFHGCCHNPTGIDPTLEQWQTLAQLSVEKGWLPLFDFAYQGFARGLEEDAEGLRAFAAMHKELIVASSYSKNFGLYNERVGACTLVAADSETVDRAFSQMKAAIRANYSNPPAHGASVVATILSNDALRAIWEQELTDMRQRIQRMRQLFVNTLQEKGANRDFSFIIKQNGMFSFSGLTKEQVLRLREEFGVYAVASGRVNVAGMTPDNMAPLCEAIVAVL
notes: as for B1
Work on B2 yielded a Km (purified protein [4]) of 900 ± 60 µM, a kcat (purified protein [4]) of 22.8 ± 0.4 s⁻¹ and a kcat/Km (purified protein [4]) of 25000 ± 2000 M⁻¹ s⁻¹. For the same molecule, the Km (purified protein [3]) was 27 ± 3 µM, the kcat (purified protein [3]) was 0.9 s⁻¹ and the kcat/Km (purified protein [3]) was 33000 ± 4000 M⁻¹ s⁻¹.

B3: E. coli aspartate aminotransferase hexamutant HEX (enzyme)
chain: MFENITAAPADPILGLADLFRADERPGKINLGIGLYYDETGKIPVLTSVKKAEQYLLENETTKLYLGIDGIPEFGRCTQELLFGKGSALINDKRARTAQTPGGSGALRVAADFLAKNTSVKRVWVSNPSWPNHKSVFNSAGLEVREYAYYDAENHTLDFDALINSLNEAQAGDVVLFHGCCHNPTGIDPTLEQWQTLAQLSVEKGWLPLFDFAYQGFARGLEEDAEGLRAFAAMHKELIVASSYSKNFGLYNERVGACTLVAADSETVDRAFSQMKAAIRANYSSPPAHGASVVATILSNDALRAIWEQELTDMRQRIQRMRQLFVNTLQEKGANRDFSFIIKQNGMFSFSGLTKEQVLRLREEFGVYAVASGRVNVAGMTPDNMAPLCEAIVAVL
modifications: imine bond between PLP and K246 (internal aldimine)
notes: aspartate aminotransferase (AAT), Escherichia coli, UniProt P00509, with six mutations; T104S and N285S are T109S and N297S in the numbering of PDB 1AHE and 1AHY; Mutant genes were ligated into pET-11a; the proteins were purified on Ni-NTA; source: E. coli BL21-Gold (DE3), purified (Ni-NTA, gel filtration)
In the case of B3, the “stoichiometry N” value [5] is reported as 2.

B4: wild-type E. coli aspartate aminotransferase (enzyme)
chain: MFENITAAPADPILGLADLFRADERPGKINLGIGVYKDETGKTPVLTSVKKAEQYLLENETTKNYLGIDGIPEFGRCTQELLFGKGSALINDKRARTAQTPGGTGALRVAADFLAKNTSVKRVWVSNPSWPNHKSVFNSAGLEVREYAYYDAENHTLDFDALINSLNEAQAGDVVLFHGCCHNPTGIDPTLEQWQTLAQLSVEKGWLPLFDFAYQGFARGLEEDAEGLRAFAAMHKELIVASSYSKNFGLYNERVGACTLVAADSETVDRAFSQMKAAIRANYSNPPAHGASVVATILSNDALRAIWEQELTDMRQRIQRMRQLFVNTLQEKGANRDFSFIIKQNGMFSFSGLTKEQVLRLREEFGVYAVASGRVNVAGMTPDNMAPLCEAIVAVL
modifications: imine bond between PLP and K246 (internal aldimine)
notes: aspartate aminotransferase (AAT), Escherichia coli, UniProt P00509; Gene with N-terminal His-tag in pET-45b; also called AAT; WT; source: E. coli BL21-Gold (DE3), purified (Ni-NTA, gel filtration)
For B4, the “stoichiometry N” value [5] was 2.

B5: E. coli aspartate aminotransferase (AAT) (Escherichia coli K-12; K37F/N64Y/T43I) (protein)
chain: MFENITAAPADPILGLADLFRADERPGKINLGIGVYFDETGKIPVLTSVKKAEQYLLENETTKYYLGIDGIPEFGRCTQELLFGKGSALINDKRARTAQTPGGTGALRVAADFLAKNTSVKRVWVSNPSWPNHKSVFNSAGLEVREYAYYDAENHTLDFDALINSLNEAQAGDVVLFHGCCHNPTGIDPTLEQWQTLAQLSVEKGWLPLFDFAYQGFARGLEEDAEGLRAFAAMHKELIVASSYSKNFGLYNERVGACTLVAADSETVDRAFSQMKAAIRANYSNPPAHGASVVATILSNDALRAIWEQELTDMRQRIQRMRQLFVNTLQEKGANRDFSFIIKQNGMFSFSGLTKEQVLRLREEFGVYAVASGRVNVAGMTPDNMAPLCEAIVAVL
notes: as for B1
B5 was tested, and the Km (purified protein [4]) was 420 ± 40 µM, the kcat (purified protein [4]) was 17.3 ± 0.4 s⁻¹ and the kcat/Km (purified protein [4]) was 41000 ± 4000 M⁻¹ s⁻¹. It also gave a Km (purified protein [3]) of 120 ± 10 µM, a kcat (purified protein [3]) of 0.263 s⁻¹ and a kcat/Km (purified protein [3]) of 2200 M⁻¹ s⁻¹.

B6: E. coli aspartate aminotransferase (AAT) (Escherichia coli K-12; K37Y/N285S/N64L/T104S/T43I/V35L) (protein)
chain: MFENITAAPADPILGLADLFRADERPGKINLGIGLYYDETGKIPVLTSVKKAEQYLLENETTKLYLGIDGIPEFGRCTQELLFGKGSALINDKRARTAQTPGGSGALRVAADFLAKNTSVKRVWVSNPSWPNHKSVFNSAGLEVREYAYYDAENHTLDFDALINSLNEAQAGDVVLFHGCCHNPTGIDPTLEQWQTLAQLSVEKGWLPLFDFAYQGFARGLEEDAEGLRAFAAMHKELIVASSYSKNFGLYNERVGACTLVAADSETVDRAFSQMKAAIRANYSSPPAHGASVVATILSNDALRAIWEQELTDMRQRIQRMRQLFVNTLQEKGANRDFSFIIKQNGMFSFSGLTKEQVLRLREEFGVYAVASGRVNVAGMTPDNMAPLCEAIVAVL
notes: as for B1
For B6, the Km (purified protein [4]) was 270 ± 30 µM, the kcat (purified protein [4]) was 9 ± 0.2 s⁻¹ and the kcat/Km (purified protein [4]) was 33000 ± 4000 M⁻¹ s⁻¹. The Km (purified protein [3]) was 59 ± 7 µM, the kcat (purified protein [3]) was 1.32 s⁻¹ and the kcat/Km (purified protein [3]) was 22000 ± 3000 M⁻¹ s⁻¹.

B7: E. coli aspartate aminotransferase (AAT) (Escherichia coli K-12; K37F/N64S/T43C) (protein)
chain: MFENITAAPADPILGLADLFRADERPGKINLGIGVYFDETGKCPVLTSVKKAEQYLLENETTKSYLGIDGIPEFGRCTQELLFGKGSALINDKRARTAQTPGGTGALRVAADFLAKNTSVKRVWVSNPSWPNHKSVFNSAGLEVREYAYYDAENHTLDFDALINSLNEAQAGDVVLFHGCCHNPTGIDPTLEQWQTLAQLSVEKGWLPLFDFAYQGFARGLEEDAEGLRAFAAMHKELIVASSYSKNFGLYNERVGACTLVAADSETVDRAFSQMKAAIRANYSNPPAHGASVVATILSNDALRAIWEQELTDMRQRIQRMRQLFVNTLQEKGANRDFSFIIKQNGMFSFSGLTKEQVLRLREEFGVYAVASGRVNVAGMTPDNMAPLCEAIVAVL
notes: as for B1
Molecule B7 has a Km (purified protein [4]) of 12000 ± 1000 µM, a kcat (purified protein [4]) of 87 ± 3 s⁻¹ and a kcat/Km (purified protein [4]) of 7200 ± 700 M⁻¹ s⁻¹. It also gave a Km (purified protein [3]) of 68 ± 7 µM, a kcat (purified protein [3]) of 6 s⁻¹ and a kcat/Km (purified protein [3]) of 88000 ± 9000 M⁻¹ s⁻¹.

B8: E. coli aspartate aminotransferase (AAT) (Escherichia coli K-12; K37I/N64S/T43F/V35A) (protein)
chain: MFENITAAPADPILGLADLFRADERPGKINLGIGAYIDETGKFPVLTSVKKAEQYLLENETTKSYLGIDGIPEFGRCTQELLFGKGSALINDKRARTAQTPGGTGALRVAADFLAKNTSVKRVWVSNPSWPNHKSVFNSAGLEVREYAYYDAENHTLDFDALINSLNEAQAGDVVLFHGCCHNPTGIDPTLEQWQTLAQLSVEKGWLPLFDFAYQGFARGLEEDAEGLRAFAAMHKELIVASSYSKNFGLYNERVGACTLVAADSETVDRAFSQMKAAIRANYSNPPAHGASVVATILSNDALRAIWEQELTDMRQRIQRMRQLFVNTLQEKGANRDFSFIIKQNGMFSFSGLTKEQVLRLREEFGVYAVASGRVNVAGMTPDNMAPLCEAIVAVL
notes: as for B1
B8 was tested, and the Km (purified protein [4]) was 2600 ± 200 µM, the kcat (purified protein [4]) was 0.54 ± 0.01 s⁻¹ and the kcat/Km (purified protein [4]) was 210 ± 20 M⁻¹ s⁻¹. For the same molecule, the Km (purified protein [3]) was 320 ± 30 µM, the kcat (purified protein [3]) was 2.42 s⁻¹ and the kcat/Km (purified protein [3]) was 7600 M⁻¹ s⁻¹.
